Measurements: patent publication US11858972B2, “Micropeptides and uses thereof” (FUNDACIÓ PRIVADA INSTITUT D'INVESTIGACIÓ ONCOLÒGICA DE VALL …, priority 2018, dated 2024)

How the values were obtained:
[1] = system: protein ubiquitylation pattern in BxPC-3 infected cells; experiment: Ubiquitylated protein levels by Western Blot after MG132; format: cell-based; conditions: proteasome blocking with MG132
Description: (§1) FIG. 11. Micropeptide of sequence SEQ ID NO: 1 expression changes cell ubiquitylation pattern. (A) Co-Immunoprecipitation using Anti-HA and Western Blot experiments indicate the presence of ubiquitylated proteins in the pull down of SEQ ID NO: 1 expressing cells. (B) Analysis of ubiquitylated protein levels by Western Blot in SEQ ID NO: 1 or empty vector BxPC-3 infected cells after proteasome blocking treatment with MG132.

[2] = system: SkBR-3, HPAF II, MIA PaCa-2 and BxPC-3 cells; experiment: Cell death upon puromycin selection stress (phase contrast images); format: cell-based; conditions: Puromycin selection of infected cells, pMSCV non-inducible vector; several pancreatic and breast cancer cell lines
Protocol: FIG. 6. Micropeptide of sequence SEQ ID NO: 1 expression induces cell death upon cellularstress. SkBR-3, HPAF II, MIA PaCa-2 and BxPC-3 cells were infected with empty or SEQ ID NO: 1-HA retroviruses, and selected by puromycin. Micropeptide of sequence SEQ ID NO: 1 expression was analyzed by qPCR (A) and by Western blot (B). (C) Phase contrast images of the indicated cells 3 days after selection with puromycin. […] (E) BXPC-3 cells were infected with an inducible lentivirus encoding SEQ ID NO: 1-HA, and selected with Neomycin. Micropeptide of sequence SEQ ID NO: 1 expression was induced by doxycycline, and cells were treated with Doxorubicin or Actinomycin D. (E) Cell viability of the indicated cells measured by crystal violet staining.

[3] = system: BxPC-3 pancreatic cancer cell line; experiment: Cell viability by CellTiter-Glo after doxycycline-induced expression; format: cell-based; conditions: BxPC-3, expression induced by doxycycline for 4 days
Description: FIG. 5. Micropeptide of sequence SEQ ID NO: 1 overexpression induces cell cycle arrest and cellular senescence. BxPC-3 cells were transduced with an inducible lentivirus coding HA-SEQ ID NO: 1. Micropeptide of sequence SEQ ID NO: 1 expression was induced by doxycycline treatment for 4 days. (A) Phase contrast images of SEQ ID NO:1-expressing cells and control cells. (B) Cell viability analysis by CellTiter-Glo assay. (C) Cell cycle analysis by flow cytometry. Left, histogram plots. Right, quantification of the number of cells in every cell cycle phase (D) Analysis of p27 and p21 expression by qPCR. (E) Western Blot of the indicated cells using anti-HA and anti-p21 antibodies. (F) Quantification of the number of SA-β-Gal positive cells in doxycycline-treated and untreated cells. (G) Representative pictures of the cell quantified in (F). Graphs show the mean±SEM, using at least 3 technical replicates. **P<0.01 ***P<0,001 **** P<0.0001, two-tailed t-test.
Micropeptide of SEQ ID NO: 1 expression was induced in BxPC3 cells by treatment with doxycycline (2 μg/ml) for 4 days. Cells were fixed using 100% ethanol at 4° C., stained with Propidium Iodide, and cell cycle was analysed by flow cytometry (LSR-Fortessa cytometer). Cell viability in micropeptide of SEQ ID NO: 1-expressing cells was evaluated using CellTiter-Glo 2.0 (Promega) following manufacturer's instructions.

[4] = system: EMT regulators VIMENTIN, SLUG, SNAIL, N-CADHERIN, TWIST1, TWIST2, ZEB1 and ZEB2; experiment: Mesenchymal gene expression by qPCR in H10 SCC cell line; format: cell-based
Protocol: (§2) FIG. 9. SEQ ID NO: 1 overexpression impairs invasiveness and reduces mesenchymal traits in A549 and H10 cell lines. Invasion of indicated cells was analyzed in matrigel-coated inserts. (A) The undersides of membrane inserts containing invaded cells were fixed and stained with crystal violet and photographed 24 h after plating. (B) Number of invasive cells was calculated using ImageJ software. Bars plots show relative number of cells invading the chamber. (C) Analysis of several mesenchymal genes by qPCR. mRNA expression is shown relative to the control. * P<0.05, **P<0.01 two-tailed t-test.
Total RNA was extracted with Trizol® and treated with TURBO™ DNase following provider's recommendations. 1 μg of RNA was retrotranscribed using iScript™ cDNA Synthesis Kit (BioRad). Gene expression was analysed by quantitative real time PCR using PowerUp SYBR Green Master Mix (Thermo Fisher Scientific) in the 7900HT Fast Real-Time PCR System (Applied Biosystems). Cycle threshold (Ct) values were normalized to GAPDH.

[5] = system: BxPC-3 infected cells; experiment: Annexin V/PI assay; format: cell-based; conditions: BxPC-3, SEQ ID NO: 1-Puromycin conditions
Protocol: FIG. 6. Micropeptide of sequence SEQ ID NO: 1 expression induces cell death upon cellularstress. SkBR-3, HPAF II, MIA PaCa-2 and BxPC-3 cells were infected with empty or SEQ ID NO: 1-HA retroviruses, and selected by puromycin. Micropeptide of sequence SEQ ID NO: 1 expression was analyzed by qPCR (A) and by Western blot (B). (C) Phase contrast images of the indicated cells 3 days after selection with puromycin. (D) Annexin-V/PI staining of BxPC-3 infected cells with and without puromycin treatment, analyzed by Flow Cytrometry. (E) BXPC-3 cells were infected with an inducible lentivirus encoding SEQ ID NO: 1-HA, and selected with Neomycin. Micropeptide of sequence SEQ ID NO: 1 expression was induced by doxycycline, and cells were treated with Doxorubicin or Actinomycin D. (E) Cell viability of the indicated cells measured by crystal violet staining.
After lentiviral infection and puromycin selection for 72 h, infected cells were washed twice with cold PBS and resuspended in Binding Buffer at a cell density of 1×10^6 cells/mL. Following manufacturer's instructions (BD Pharmingen™) 100 μL of cells were treated with 5 μL of Annexin V-FITC. After incubation for 15 min in the dark at room temperature, 400 ul of Binding Buffer was added and each sample was supplemented with 10 μL of Propidium Iodide. Flow cytometry analysis was performed on a LSR Fortessa cytometer.

[6] = system: ubiquitylated proteins; experiment: Co-Immunoprecipitation using Anti-HA and Western Blot; format: binding; conditions: immunoprecipitation with Anti-HA
Description: as §1

[7] = system: H10 cancer cells; experiment: Invasion assay (Boyden chamber, Matrigel); format: cell-based; conditions: H10, after 4 days of doxycycline induction, 24 h invasion
Protocol: as §2
BxPC-3, MDA-MB-231, A549 and H10 cell lines were trypsinized, counted, and 20.000 cells/well were seeded in triplicate in a Corning® cell culture insert (Boyden chamber) in which the porous membrane is coated with a layer of Matrigel® to mimic an extra cellular matrix (ECM). Cells were allowed to invade through the coated membrane for 24 hours in the cell incubator at 37° C. After the incubation time, culture inserts were fixed in methanol 5 minutes at RT and stained using Crystal Violet 20 minutes at RT. The excess of Crystal Violet staining was removed washing with PBS and pictures of the chambers were taken using an Olympus CeIIR microscope. Invading cells were counted using ImageJ and fold change was calculated normalizing to the control.

B1: SEQ ID NO: 1: highly conserved 87 aa micropeptide coded by the lncRNA TINCR; predicted ubiquitin-like protein (protein, listed as Homo sapiens)
chain: MEGLRRGLSRWKRYHIKVHLADEALLLPLTVRPRDTLSDLRAQLVGQGVSSWKRAFYYNARRLDDHQTVRDARLQDGSVLLLVSDPR
protein ubiquitylation pattern [1]: alters protein ubiquitylation pattern
cell death when coupled with cellular stress [2]: extensive cell death
cell proliferation [3]: significantly reduces cell proliferation
expression of the EMT regulators VIMENTIN, SLUG, SNAIL, N-CADHERIN, TWIST1, TWIST2, ZEB1 and ZEB2 [4]: represses the expression
percentage of early apoptotic cells [5]: 22.4%
percentage of late apoptotic cells [5]: 58.6%
binding to ubiquitylated proteins [6]: binds to ubiquitylated proteins
invasion [7]: significant decrease in invasion
